Measured values reported in the supplement of paper PMC9112550, “Optimization of the antimicrobial peptide Bac7 by deep mutational scanning” (BMC Biology, 2022).

System: Escherichia coli TOP10
Test: shrunken log2 fold change of peptide-encoding DNA abundance (4.5 h post-induction vs induction); higher = less antimicrobial activity (less host growth inhibition)
Conditions: time post-induction: 4.5 h; library: site-saturation at positions 5, 18, 19, 20
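Also: peptides expressed intracellularly from a pBAD plasmid library in pooled LB shake-flask culture, induced with 0.3% L-arabinose, DNA abundance read by NGS, three biological replicates, DESeq2 with apeglm shrinkage.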

Sequence	shrunken log2 fold change
RRIRSRPPRLPRPRPRPHQWPRP	-0.144
RRIRRRPPRLPRPRPRPGLLPRP	0.0882
RRIRYRPPRLPRPRPRPHEGPRP	-0.199
RRIRVRPPRLPRPRPRPEVLPRP	0.244
RRIRVRPPRLPRPRPRPGTMPRP	-0.122
RRIRMRPPRLPRPRPRPDDPPRP	1.6
RRIRHRPPRLPRPRPRPDGSPRP	-0.0231
RRIRIRPPRLPRPRPRPNFNPRP	-0.745
RRIRPRPPRLPRPRPRPICSPRP	-0.014
RRIRPRPPRLPRPRPRPCNVPRP	-0.314
RRIRDRPPRLPRPRPRPPQTPRP	0.115
RRIRHRPPRLPRPRPRPRVTPRP	0.0786
RRIRTRPPRLPRPRPRPDIPPRP	-0.0961
RRIRDRPPRLPRPRPRPDYDPRP	-0.0133
RRIRTRPPRLPRPRPRPGDNPRP	-0.00277
RRIRHRPPRLPRPRPRPTVLPRP	-0.109
RRIRARPPRLPRPRPRPFDSPRP	-0.0745
RRIRVRPPRLPRPRPRPLWSPRP	-0.0257
RRIRMRPPRLPRPRPRPCESPRP	-0.0088
RRIRVRPPRLPRPRPRPTMPPRP	0.24
RRIRGRPPRLPRPRPRPSEHPRP	0.149
RRIRNRPPRLPRPRPRPPGNPRP	0.532
RRIRPRPPRLPRPRPRPSHNPRP	-0.645
RRIRTRPPRLPRPRPRPVEMPRP	-0.162
RRIRYRPPRLPRPRPRPWEEPRP	-0.0122

Sequence	shrunken log2 fold change
RRIRCRPPRLPRPRPRPYMIPRP	-0.582
RRIRFRPPRLPRPRPRPAPCPRP	0.294
RRIRARPPRLPRPRPRPTQKPRP	-0.0406
RRIRFRPPRLPRPRPRPVNDPRP	-0.0167
RRIRDRPPRLPRPRPRPIPHPRP	-0.051
RRIRCRPPRLPRPRPRPYMVPRP	-0.462
RRIRIRPPRLPRPRPRPLNYPRP	-0.384
RRIRGRPPRLPRPRPRPKFKPRP	0.383
RRIRARPPRLPRPRPRPLYDPRP	-0.124
RRIRHRPPRLPRPRPRPQEVPRP	-0.0461
RRIRNRPPRLPRPRPRPGTNPRP	-0.0826
RRIRKRPPRLPRPRPRPAVHPRP	0.112
RRIRFRPPRLPRPRPRPWNGPRP	0.228
RRIRNRPPRLPRPRPRPQVYPRP	-0.0412
RRIRARPPRLPRPRPRPSNAPRP	0.133
RRIRNRPPRLPRPRPRPTNPPRP	-0.216
RRIRYRPPRLPRPRPRPILKPRP	-1.06
RRIRARPPRLPRPRPRPISIPRP	-0.439
RRIRLRPPRLPRPRPRPSFHPRP	-0.457
RRIRWRPPRLPRPRPRPAGAPRP	0.392
RRIRDRPPRLPRPRPRPYFWPRP	-0.0487
RRIRRRPPRLPRPRPRPEKAPRP	0.0304
RRIRSRPPRLPRPRPRPQKSPRP	-0.181
RRIRNRPPRLPRPRPRPMRCPRP	-0.123
RRIRRRPPRLPRPRPRPIFIPRP	-0.0166

Sequence	shrunken log2 fold change
RRIRGRPPRLPRPRPRPHIIPRP	0.234
RRIRYRPPRLPRPRPRPQSMPRP	-0.451
RRIRERPPRLPRPRPRPWLDPRP	0.121
RRIRIRPPRLPRPRPRPQYQPRP	-0.769
RRIRMRPPRLPRPRPRPIVHPRP	-0.289
RRIRFRPPRLPRPRPRPEVDPRP	0.084
RRIRVRPPRLPRPRPRPAPIPRP	0.152
RRIRERPPRLPRPRPRPAIWPRP	0.129
RRIRTRPPRLPRPRPRPDWAPRP	0.327
RRIRIRPPRLPRPRPRPTARPRP	0.0575
RRIRYRPPRLPRPRPRPWTTPRP	-0.000803
RRIRKRPPRLPRPRPRPHYMPRP	-0.0279
RRIRVRPPRLPRPRPRPKCKPRP	-0.191
RRIRCRPPRLPRPRPRPSIWPRP	-0.342
RRIRIRPPRLPRPRPRPMFDPRP	-0.0483
RRIRWRPPRLPRPRPRPQRLPRP	0.159
RRIRTRPPRLPRPRPRPDAPPRP	0.215
RRIRDRPPRLPRPRPRPAMKPRP	-0.0728
RRIRARPPRLPRPRPRPNPYPRP	-0.115
RRIRARPPRLPRPRPRPWKWPRP	-0.163
RRIRNRPPRLPRPRPRPDTAPRP	-0.235
RRIRPRPPRLPRPRPRPHWKPRP	-0.131
RRIRTRPPRLPRPRPRPGSAPRP	0.362
RRIRYRPPRLPRPRPRPCVIPRP	0.0735
RRIRSRPPRLPRPRPRPWNTPRP	-0.237

Sequence	shrunken log2 fold change
RRIRWRPPRLPRPRPRPKPEPRP	0.351
RRIRDRPPRLPRPRPRPRAVPRP	0.764
RRIRVRPPRLPRPRPRPREQPRP	0.0561
RRIRTRPPRLPRPRPRPEQAPRP	0.173
RRIRLRPPRLPRPRPRPQLFPRP	0.131
RRIRFRPPRLPRPRPRPNEGPRP	-0.0411
RRIRYRPPRLPRPRPRPDCYPRP	-3.15
RRIRIRPPRLPRPRPRPFVKPRP	-0.691
RRIRMRPPRLPRPRPRPRVIPRP	0.477
RRIRERPPRLPRPRPRPLTVPRP	-0.0383
RRIRDRPPRLPRPRPRPLWPPRP	0.662
RRIRTRPPRLPRPRPRPFAPPRP	0.163
RRIRGRPPRLPRPRPRPWVLPRP	0.222
RRIRCRPPRLPRPRPRPTDFPRP	-0.759
RRIRCRPPRLPRPRPRPWAWPRP	-0.105
RRIRFRPPRLPRPRPRPAGSPRP	-0.139
RRIRDRPPRLPRPRPRPHRRPRP	-0.247
RRIRLRPPRLPRPRPRPFLAPRP	-0.141
RRIRLRPPRLPRPRPRPFYTPRP	-0.338
RRIRCRPPRLPRPRPRPATPPRP	1.34
RRIRQRPPRLPRPRPRPKLGPRP	0.00556
RRIRERPPRLPRPRPRPHQSPRP	-0.0234
RRIRGRPPRLPRPRPRPAPGPRP	1.12
RRIRPRPPRLPRPRPRPHVQPRP	-0.0151
RRIRPRPPRLPRPRPRPEAQPRP	0.904

Sequence	shrunken log2 fold change
RRIRLRPPRLPRPRPRPSERPRP	-0.0849
RRIRHRPPRLPRPRPRPPTWPRP	0.0706
RRIRARPPRLPRPRPRPKFVPRP	0.301
RRIRQRPPRLPRPRPRPGRIPRP	-0.123
RRIRGRPPRLPRPRPRPENVPRP	0.328
RRIRNRPPRLPRPRPRPRSTPRP	-0.0419
RRIRTRPPRLPRPRPRPLERPRP	-0.0732
RRIRARPPRLPRPRPRPHPLPRP	-0.0796
RRIRKRPPRLPRPRPRPQGCPRP	0.421
RRIRMRPPRLPRPRPRPPDIPRP	0.121
RRIRERPPRLPRPRPRPKNLPRP	0.072
RRIRQRPPRLPRPRPRPVGVPRP	0.475
RRIRTRPPRLPRPRPRPPGWPRP	0.758
RRIRGRPPRLPRPRPRPFKNPRP	0.243
RRIRIRPPRLPRPRPRPFYCPRP	-0.633
RRIRWRPPRLPRPRPRPVKFPRP	0.0171
RRIRVRPPRLPRPRPRPVTKPRP	0.261
RRIRWRPPRLPRPRPRPVEEPRP	0.0996
RRIRLRPPRLPRPRPRPSKKPRP	-0.0524
RRIRERPPRLPRPRPRPPPTPRP	0.518
RRIRIRPPRLPRPRPRPNLPPRP	-0.173
RRIRARPPRLPRPRPRPECYPRP	0.361
RRIRDRPPRLPRPRPRPMWHPRP	-0.008
RRIRKRPPRLPRPRPRPNIGPRP	-0.05
RRIRCRPPRLPRPRPRPDNIPRP	-0.0703

Sequence	shrunken log2 fold change
RRIRTRPPRLPRPRPRPTTFPRP	-0.012
RRIRARPPRLPRPRPRPMHHPRP	0.112
RRIRPRPPRLPRPRPRPYWCPRP	-0.272
RRIRNRPPRLPRPRPRPVWQPRP	0.285
RRIRLRPPRLPRPRPRPMWLPRP	-0.0867
RRIRSRPPRLPRPRPRPKAKPRP	0.626
RRIRIRPPRLPRPRPRPTKRPRP	-0.0508
RRIRTRPPRLPRPRPRPYVTPRP	-0.203
RRIRHRPPRLPRPRPRPPNAPRP	0.257
RRIRARPPRLPRPRPRPLIGPRP	0.107
RRIRLRPPRLPRPRPRPSEPPRP	-0.114
RRIRMRPPRLPRPRPRPHYTPRP	-0.399
RRIRMRPPRLPRPRPRPLNTPRP	0.163
RRIRWRPPRLPRPRPRPGALPRP	0.406
RRIRSRPPRLPRPRPRPCWMPRP	-0.0635
RRIRFRPPRLPRPRPRPPFEPRP	0.347
RRIRCRPPRLPRPRPRPAWYPRP	-0.0055
RRIRRRPPRLPRPRPRPYSTPRP	-0.295
RRIRWRPPRLPRPRPRPAGFPRP	0.272
RRIRVRPPRLPRPRPRPADGPRP	0.000767
RRIRRRPPRLPRPRPRPRIFPRP	0.0808
RRIRERPPRLPRPRPRPWIFPRP	-0.101
RRIRRRPPRLPRPRPRPMSCPRP	0.0813
RRIRFRPPRLPRPRPRPLFHPRP	-0.632
RRIRDRPPRLPRPRPRPVTRPRP	0.348
